From patent US20070185028A1, “Compositions and methods for treatment of protein misfolding and protein aggregation diseases” (priority 2004, published 2007)

Assays:
βL crystallin = assay: Chaperone assay, thermal aggregation of βL crystallin; format: biochemical; settings: 1:10 target protein:peptide; light scattering 340 nm
Method: Chaperone Assays. Chaperone assays of the five peptides were performed using previously established methods with minor modifications. Muchowski et al., J Mol Biol 289: 397-411, 1999. A 1:1 monomeric molar ratio of chaperone:target protein was determined to be the optimum ratio and all subsequent chaperone assays of the β3 mutants were performed in triplicate and at a 1:1 monomeric molar ratio of chaperone:target protein in a 96-well ELISA micro-titer plate. […] of the chaperone and βL crystallin were mixed in a total volume of 200 μl buffer (5 mM PBS, pH 7.0). Light scattering at λ=340 nm was measured using a Multiskan MCC/340 plate reader before heating (time=0). After the first reading, the plate was heated at 50° C. and readings were taken at fifteen minute intervals for one hour.
The ability of the peptides to suppress the thermal aggregation of βL crystallin was measured spectrophotometrically as light scattering at λ=340 nm from solutions containing 1:10 monomeric molar ratio of target protein:peptide.

Aβ1-42 = target: T1, Aβ1-42 (Homo sapiens, UniProt P05067); assay: Aβ1-42 fibril formation ThT fluorescence assay; format: biochemical; settings: for decrease in ThT fluorescence of Aβ1-42: 30 μM Aβ1-42, 48 hrs
T1 construct: Aβ1-42 (American Peptide); purchased American Peptide
Method: The effect of five synthesized αB crystallin peptides STSLSPFYLRPPSFLRAP (ST), DRFSVNLDVKHFS (DR), HGKHEERQDE (HG), LTITSSLSSDGV (LT), and ERTIPITRE (ER) on Aβ1-42 fibrillation was measured using the ThT fluorescence assay (FIG. 1). The formation and inhibition of Aβ1-42 fibrils was qualitatively verified by fluorescence and bright-field microscopy. The concentration and stoichometry of the peptides was varied relative to Aβ1-42 to establish a concentration curve. In addition, the effect of two known inhibitors of Aβ1-42 fibrillation (APS and NAP) and a control neuropeptide (AT1) with no fibril inhibition activity was measured and compared to the effect of the αB crystallin peptides on Aβ1-42 fibrillation. The ThT fluorescence of 30 μM Aβ1-42 alone incubated at 37° C. for 48 hrs increased from ˜350,000 to ˜450,000 RFU. […] In contrast, 6 μM DR, LT, and […] had no effect on Aβ1-42 fibril formation. […] Increasing the concentration of the DR peptide to 30 μM decreased the ThT fluorescence by approximately 50%. […] However, when the concentrations of the LT and ER peptides were increased to 150 μM, a 60-100% decrease in ThT fluorescence was measured. […] The negative control peptide AT1 had no effect on Aβ1-42 fibril formation even at a concentration as high as 300 μM.
The Thioflavin T (ThT) fluorescence of Aβ1-42 in the presence of varying concentrations of αB crystallin peptides and controls was measured. […] Addition of 6 μM DR, LT, and ER had no effect on the ThT fluorescence of Aβ1-42. When the concentration of the peptides was increased to 30 μM (1:1::peptide:Aβ1-42), the αB crystallin peptides ST, DR, HG decreased the ThT fluorescence by 50-100%. At the same concentrations, APS and NAP decreased the ThT fluorescence by 30-100%. When the concentration of the peptides was increased further to 150 μM ([…]), four of the five αB crystallin peptides DR, HG, LT, and ER decreased the ThT fluorescence by 58-100%. At the same concentrations, APS and NAP decreased the fluorescence by 28-100%. […] The formation and inhibition of Aβ fibrils was verified microscopically.
Thioflavin T (ThT) Assays. The effect of the five αB crystallin peptides (ST, DR, HG, LT, and ER) on Aβ1-42 fibril formation was measured using the ThT fluorescence assay (44-47) and compared with two known inhibitors of Aβ1-42 fibril formation (Tramiprosate and NAP)(34, 36) and a negative control neuropeptide Angiotensin 1 (AT1). Thioflavin T is a fluorescent dye that has a high affinity for amyloid fibrils and becomes fluorescent (excitation λ=450 nm, emission λ=486 nm) when bound to fibrils. For the Aβ1-42 assays, peptides and APS were dissolved to 2 mM in 0.25% DMSO and diluted accordingly, while Aβ1-42 was dissolved in 20 mM Tris-Cl, pH 7.40, and 100 mM NaCl. For the 5:1::inhibitor:Aβ1-42 assay, 10 μL of 450 μM peptide or APS was mixed with 10 μL of 90 μM Aβ1-42), 7 μL 20 mM Tris-Cl, 100 mM NaCl, pH 7.4 and 3 μL of 1 mM ThT. For the 1:1::inhibitor:Aβ1-42 assay, 10 μL of 90 μM peptide or APS was mixed with 10 μL of 90 μM Aβ(1-42), 7 μL 20 mM Tris-Cl, 100 mM NaCl, pH 7.4 and 3 μL of 1 mM ThT. For the 1:5::inhibitor:Aβ1-42 assay, 10 μL of 18 μM peptide or APS was mixed with 10 μL of 90 μM Aβ(1-42), 7 μL 20 mM Tris-Cl, 100 mM NaCl, pH 7.4 and 3 μL of 1 mM ThT. ThT fluorescence in relative fluorescence units (RFU) was measured using a Perkin Elmer Victor^3 V plate reader. Assays were performed in 384-well fluorescence plates in duplicates or triplicates. Samples were incubated at 37° C. for a total of 48 hours. ThT fluorescence was measured at 0, 24, and 48 hours. The effect of the peptides and APS was calculated as percentage fibril formation relative to Aβ1-42 alone (100%) at the end of 48 hours.

| Sequence | effect on the thermal aggregation of βL crystallin (ranking) (βL crystallin) | decrease in ThT fluorescence of Aβ1-42 (Aβ1-42; 6 μM inhibitor, 37° C.) | decrease in ThT fluorescence of Aβ1-42 (Aβ1-42; 30 μM inhibitor (1:1)) | effect on Aβ1-42 fibril formation, over all concentrations (Aβ1-42; any concentration) | inhibition of Aβ fibrillation (Aβ1-42; peptide to substrate concentration of 1:5) [%] |
| --- | --- | --- | --- | --- | --- |
| DRFSVNLDVKHFS | identical and slightly lower than the HG peptide | no effect |  |  |  |
| ERTIPITRE | identical and slightly lower than the HG peptide | no effect | no effect |  |  |
| HGKHEERQDE | strongest effect |  |  | most effective inhibitor |  |
| LTITSSLSSDGV | identical and slightly lower than the HG peptide | no effect | no effect |  |  |
| STSLSPFYLRPPSFLRAP | weakest effect |  |  |  | 100 |
